Assay results: the supplement of paper PMC12042874
± gives the uncertainty stated by the source.

Assay: amyloid nucleation score (Sup35N fusion, yeast selection) (log enrichment); library NNK1; higher = more nucleation; inactive = no reads after selection
Summary of the method: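 The nucleation score is the log enrichment of output over input reads, calculated with DiMSum and centred on the mode score of non-aggregating sequences. Sequences with under 100 input reads were excluded. Reads came from Illumina sequencing of plasmid inserts from psi-negative yeast expressing Sup35N fused to peptides of 20 random codons, induced 24 hours with 100 μM copper sulfate and grown 7 days at 30°C without adenine and uracil.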

Substance | amyloid nucleation score
ALCFCWNWLLCTDKGL | 6.056 ± 0.048
SNLECV | -0.019 ± 0.51
DWQMMVYRNAFLPR | -1.32 ± 1.3
HSLLWPLGFAQ | 0.184 ± 0.67
VSCCNSQTSQLMDFGNKVSP | 0.349 ± 0.25
SWRLRIIGEWRAFGDNMDSR | 2.75 ± 0.15
GIRKKVPIVVCNIFQFECKR | 2.51 ± 0.1
CAYSNKE | 0.228 ± 0.34
SIPFGIIMETCENLTDFAVY | -0.74 ± 0.85
QSGVNNTVLVCIVQSFSSLM | 5.5 ± 0.082
YLIEFCPL | -0.225 ± 0.34
RLVPVACNPSLNKAVENSFF | 0.056 ± 1.5
TLCYYLVWRR | 0.076 ± 0.29
SATPGRGY | 0.851 ± 0.24
ALWCMRSTSRLGKCFGLVIY | -0.945 ± 0.77
GSSMLHSFSFGGPALVCCVF | 7.167 ± 0.055
FQCVFH | 3.88 ± 0.062
YISEM | 0.544 ± 0.35
VFVSWHKVCTNQRSLRQVHL | 1.56 ± 0.48
TTQDCNLRD | -0.021 ± 0.34
ASVILIVPINLYLYVVYVWI | 3.2 ± 0.15
ILYTCSSQSASFTGLWTSGL | 2.03 ± 0.16
YLSRGNY | -0.245 ± 0.79
LEMCLQDVIDGSGQGQNEWG | -0.074 ± 0.7
NRYSYYFLLI | 3.16 ± 0.1

Substance | amyloid nucleation score
LNYDLWTKILNDVVVVCNRF | -0.185 ± 0.4
SQRNLHTTYTYVAYRDYAER | 0.957 ± 0.29
ICSVRSTQVGEKTSLPWLCR | 0.371 ± 0.41
LGWNKSTAYELCFTPSSGGY | 2.11 ± 0.15
NSSTVDFSYTNYVRVLLLIA | -0.745 ± 0.8
WCWNAAQLSMVYSDMNFVAV | 0.675 ± 1
GGTSIPVVGNQGMIGYVPCD | 0.825 ± 0.43
RSQFWHFQWWTKSHNIMGLD | 0.803 ± 1.1
RTVPTRWACVLVSGVWRYGA | 0.504 ± 0.46
ILIDYRGSEPG | 0.224 ± 1.4
STMVCHDFLAMMGSCMGLCL | -0.406 ± 0.96
VAISDDDVLVWMYFS | 0.154 ± 0.44
TVTAVY | inactive
NEDAPFMVTSKVVSGT | 0.176 ± 0.34
LLWDCVNLEGIEQFYCPHSD | 0.382 ± 0.44
YSCWFKHRTALPIGSEGMTR | 0.708 ± 0.53
NVMNVIGGENWVSGFDCMGR | inactive
IVLRDFHGLSWAWSLIVHVK | 0.039 ± 0.88
FIQGLCMVFDVSYLRLS | 2.8 ± 0.15
LSQFD | 1.17 ± 0.41
ARTRVTLSR | -0.072 ± 0.98
TYGGYR | -0.343 ± 0.93
LFKSPWGDDHSIST | 0.434 ± 0.29
CPAWFFCIVKKYFKTVAQTV | 0.291 ± 0.48
GGELKARNKREGNQSSA | 0.058 ± 0.72

Substance | amyloid nucleation score
SRYKTPSVDGVFCSALRGSG | 0.301 ± 0.61
GLEWGGVKTQMKSWTMRMGG | -1.4 ± 1.6
ALGLRILCMRRDSRWDSPCS | 0.353 ± 0.84
TRYVNMIFPPLVCWGDEILW | 0.873 ± 0.77
ELSVRPCRVLYEHCGYRCEQ | 0.196 ± 0.49
TIFTPNIR | 0.132 ± 0.66
SYPSGVLDSNNPVLARGLAQ | -0.227 ± 0.41
LGWSGMVGFG | 0.08 ± 0.81
AHRDWFS | -0.553 ± 1.1
WNYTLGRCRTLGYAVAVLDI | -0.389 ± 1
SFSWLSRMTR | 2 ± 0.1
ARLLSQVEAEASWSNTY | 0.568 ± 0.43
EGMFFRGSLSK | 3.31 ± 0.16
GRSCKFCYVTWVVPEP | 1.25 ± 0.2
TDNDLVHYCTM | 0.029 ± 0.59
SNLDLHRSVLSRLGKYLDFP | 5.35 ± 0.081
AIMLGVGFKDGSIVYKLG | -0.354 ± 0.25
VSWHGSVLHRACMKWVCMCG | 0.51 ± 0.79
RRRFTIGASVCFRQCFYCQG | -0.491 ± 1.6
NMNNGDMSSVVVVIRVFCLI | 5.38 ± 0.093
VYCCTYVQINVGVERSTEIR | 7.044 ± 0.05
SWIANRRRFAL | 3.64 ± 0.15
YVRDGVPSWMQCYLRGSFGG | 0.208 ± 0.72
NCGNMAATSFVNEIYL | inactive
VVSTPHSN | -0.099 ± 0.85

Substance | amyloid nucleation score
LVRFSSVLCMQHQREV | 0.844 ± 0.55
LYVEMEYSFDYYATKDRHQT | -0.842 ± 1.7
RSNFELSLSALKVMLFVGHK | inactive
FKIVKSCSMFST | 0.761 ± 0.24
KVHPYEMDENYNPSRCYSSS | -0.049 ± 0.48
KVSYCSSGYLTSLTWRFLLI | 0.888 ± 0.28
LFPSTTMLLFRLNQGGFDEI | 0.407 ± 0.58
PGSVDCTVGD | -0.048 ± 0.65
MIAFYIVLLPVIRGYRSGCK | inactive
AYCTLNR | 0.603 ± 0.36
FYCLSNKFFYIVCRNALQSS | -0.324 ± 0.35
QIWPKAWPLFWPRNRKYANR | -0.077 ± 0.26
FSLYAPSTPYSSMVRIRLSD | inactive
SGFENRDSIPIAPCIRLLLV | -0.056 ± 0.59
DWAGMCFANSIHMDMLDRVL | 0.336 ± 0.4
FKVTVRVGSTMSILL | 0.223 ± 0.42
TSINGYSVAKSGGSMYCIGM | -0.194 ± 0.67
LDCINRERYIHFMR | 1.92 ± 0.5
FRQFCCV | inactive
RISRSISVDALMIRAGYLPN | inactive
NFIVVMCTIMNLCYKAQPNE | inactive
IIRNVTL | 0.263 ± 0.24
GCIGAQRLNCLWSTRRYLVY | 5.42 ± 0.06
HNIAIAPARWCVSSIRSG | -0.53 ± 0.45
AAPLNMCLANTGFAQFLTSI | -0.618 ± 1.2

Substance | amyloid nucleation score
STLWKASVFKFCYICLYQQW | 0.35 ± 0.95
FLALR | -0.249 ± 0.61
TYLYNYILASSLSHRALYNA | 1.62 ± 0.73
SPSES | -0.31 ± 0.61
YDIQVISPPSKM | 0.202 ± 0.31
AWGCMMAYFTGRLISEVSNS | -0.529 ± 0.36
WSLDSNKSWSCFKCLCFYCG | 6.223 ± 0.054
FRGMGAS | 0.617 ± 0.62
IGESVHKLSFWCDSGECF | 0.073 ± 0.31
LLGVLWFKVSCGARAQLGIW | -0.197 ± 1.9
NYSVFVTSI | 0.365 ± 0.5
VFLKHAPRGI | -0.077 ± 1.7
AHCLLIALTCCRKNNKNVSC | 0.902 ± 0.44
PARSWNLLLSSYYAVFGCFY | -0.327 ± 0.74
AGAVCWACDR | -1.4 ± 0.77
WIVSFMAIRH | 1.51 ± 0.25
GVLSIVVKSR | -2.2 ± 1.7
SEWAMRITLATASSQTGGSE | 0.235 ± 0.32
MALFSCCCKVYKMG | 4.59 ± 0.1
LIFQVSQSIGTYSCTKSEGR | 0.756 ± 0.2
HFVGMMMKSGGFARLTYNKG | 0.443 ± 0.45
RLVLSGWNVTVNSILYQGFI | 6.078 ± 0.06
VIVSSWLLTCTYSRYMRY | -1.5 ± 2.7
GCTLLESCVYGKSVRSYHQW | 0.253 ± 0.52
ANCFPLCRKNLGRSGVNNVR | -0.452 ± 0.74

Substance | amyloid nucleation score
FMYWSIHDTIVLTWHDGSSL | -0.036 ± 0.65
VNCGSYVDLDVGVIGPR | 0.255 ± 0.84
YASTPWYYMCWFIWAYCFSS | inactive
SFRKRQVVLVSANNDSVWKC | -0.097 ± 0.57
IGYCKWGSDYGCESAT | 1.07 ± 0.93
GSIPDCGIGICRYKLSGIMK | 0.047 ± 0.63
VTFWDPVVLTTPPKLCI | -0.946 ± 0.49
LPKLICIKRASLFNPFLDLM | 0.056 ± 0.24
KHICTAFRSVEFAEGIR | 0.658 ± 0.46
CVHTSVDDGRNYVKNLNDAR | inactive
TWLTRYLPLNEFRMG | 0.776 ± 0.36
LTQWPGEGKV | -0.303 ± 0.8
SLSLIVVKNGIFLVH | 3.16 ± 0.12
GMSDRQWYMTRTYCLSGPAV | 0.134 ± 0.23
DSELRMVISLYFCWLWSEWS | -0.623 ± 0.6
CNITWSFSDRLWY | 0.476 ± 0.27
GCCSVFQNCCSSRVYIFVPI | 4.87 ± 0.082
ISVHIFKGLYRSKSVAWRNV | -0.069 ± 1.1
NQILRLMCWTFYFRESSKSY | inactive
DENDSGYELYFLGAGHTGSY | -0.157 ± 0.39
FHLRSCIRFSYLMTDWQAFQ | 0.69 ± 1
NWLNWLTHLFS | 0.407 ± 0.49
DDVYSRYVNEGLGWCFIVYL | inactive
NVAGMSPQSWVVDTSSR | 1.34 ± 0.4
ICFCL | 7.772 ± 0.054

Substance | amyloid nucleation score
EVVQMVFIFFRCSLVDGKEW | 0.405 ± 0.72
MNPGG | -0.026 ± 0.21
KFYSMKTSNFWCI | 2.04 ± 0.18
LSAFNWQGDVNLRECYNVY | -0.337 ± 0.63
YFAAVIRRFGWTDIERSHQC | 0.233 ± 0.79
LMGSRAGSLTQLIESNTKER | -0.748 ± 1.1
RILGYRIMTNWGVGSYKPGR | -0.41 ± 0.46
NYLHFSRRLALWRC | inactive
RSFFPSNRDTTRPQATFVAR | 1.31 ± 0.68
MYTSDHNSGVASMCIVVGFF | 3.76 ± 0.08
VFGKITSWWFRTIDFWERRI | -0.428 ± 0.64
DFSYYLWGMSV | -0.991 ± 2.4
ALNHRHTGTRK | 0.782 ± 0.61
YMGGEWKD | 6.801 ± 0.06
FACTTSFSFMRWLRN | 0.903 ± 0.46
VIILNVVFNLLYEKAFFFR | 0.278 ± 0.68
YNTDWPLHLTADVGVFY | -0.088 ± 1.1
ICWRMKVMWPYRTIGSSLTF | 1.02 ± 0.45
GCALPQYKILWSFRFYWVGN | inactive
EKNYRICGFMGLLLFRIE | inactive
RCMDHCSLDIQVRVLCKVSV | -0.709 ± 0.66
SDSEGYLVEGWY | 0.882 ± 0.87
IAMKPENK | -0.997 ± 0.57
